Substitutions are numbered along the chain they refer to.
B1: 4D11抗体 (antibody, V domains shown)
VH: QLQLQESGPGLLKPSETLSLTCTVSGGSISSPGYYGGWIRQPPGKGLEWIGSIYKSGSTYHNPSLKSRVTISVDTSKNQFSLKLSSVTAADTAVYYCTRPVVRYFGWFDPWGQGTLVTVSS
VL: AIQLTQSPSSLSASVGDRVTITCRASQGISSALAWYQQKPGKAPKLLIYDASNLESGVPSRFSGSGSGTDFTLTISSLQPEDFATYYCQQFNSYPTFGQGTKVEIK
notes: Human antagonistic anti-CD40 antibody, FERM BP-7758; Signal peptides predicted by Signal P
B2: KM643-4-11抗体 (antibody, V domains shown)
VH: QVQLQQSGPGLVKPSQTLSFTCAISGDSVSSNSAAWNWIRQSPSRGLEWLGRTYYRSKWYKDYAVSVKSRITINPDTSKNQFSLQLNSVTPEDTAVYYCARGYYYGSGSYPYYYQMDVWGQGTTVTVSS
VL: EIVLTQSPATLSLSPGESATLSCRASQSVSSYLAWYQQKPGQAPRLLIYDASNRATGIPARFSGSGSGTDFTLTISSLEPEDFAVYYCQQRSNTFGGGTKVEIK
notes: Human agonistic anti-CD40 antibody from hybridoma; Signal peptides predicted by Signal P
B3: KM281-1-10抗体 (antibody, V domains shown)
VH: QVQLQESGPGLVKPSETLSLTCTVSGGSISGYYWSWIRQPPGKGLEWIGYIYYSGSTNYNPSLKSRVTISVDTSKNQFSLKLNSVTAADTAVYYCARAPLHGDYKWFHPWGQGTLVTVSS
VL: not shown
notes: Human antagonistic anti-CD40 antibody, FERM BP-7579; Signal peptides predicted by Signal P
B4: 110抗体 (antibody, V domains shown)
VH: QVQLVESGGGVVQPGRSLRLSCAASGFTFSSYGMHWVRQAPGKGLEWVAVIWYDGSIKYYADSVKGRFTISRDNSKNTLYLQMNSLRAEDTAVYYCAREGYNILTGYFGYWGQGTLVTVSS
VL: VIWMTQSPSLLSASTGDRVTISCRMSQGISSDLAWYQQKPGKAPELLISAASTLQSGVPSRFSGSGSGTDFTLTISCLQSEDFATYYCQQYYSFPWTFGQGTKVEIK
notes: as for B2
B5: 115抗体 (antibody, V domains shown)
VH: B4 VH with Y53N
VL: B4 VL
notes: as for B2
B6: F2-103抗体 (antibody, V domains shown)
VH: EVQLVESGGGLVQPGGSLRLSCAVSGFTFSTYWMHWVRQAPGKGLVWVSRINSDGSSTTYADSVKGRFTISRDNAKNTLYLQMNSLRAEDTAVYYCARDRVLWIGELSYYGMDVWGQGTTVTVSS
VL: DIQMTQSPSTLSASVGDRVTITCRASQSISNWLAWYQQKPGKAPKLLLYKASGLESGVPSRFSGSGSGTEFTLTINSLQPDDFATYYCQQSNSYSWTFGHGTKVEIK
notes: Human agonistic anti-CD40 antibody from hybridoma; plasmids ATCC PTA-3302 and PTA-3303; Signal peptides predicted by Signal P
B7: 2105抗体 (antibody, V domains shown)
VH: EVQLVESGGGLVQPGRSLRLSCAASGFTFDDYAMHWVRQAPGKGLEWVSGISWNSGSLVHADSVKGRFTISRDNAKNSLYLQMNSLRAEDTALYYCARDRLFRGVRYYGMDVWGQGTTVTVSS
VL: EIVLTQSPATLSLSPGERATLSCRASQSVSSYLAWYQQKPGQAPRLLIYDASNRATGIPARFSGSGSGTDFTLTISSLEPEDFAVYYCQQRSHWLTFGGGTKVEIK
notes: Human agonistic anti-CD40 antibody, FERM BP-8024
B8: F5-77抗体 (antibody, V domains shown)
VH: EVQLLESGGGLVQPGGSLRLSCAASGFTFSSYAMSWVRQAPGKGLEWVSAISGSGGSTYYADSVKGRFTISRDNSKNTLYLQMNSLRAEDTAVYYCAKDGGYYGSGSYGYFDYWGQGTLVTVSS
VL: DIQMTQSPSSVSGSVGDRVTITCRASQGISSWLAWYQQKPGKAPKLLIYAGSSLQSGVPSRFSGSGFGTDFTLTISSLQPEDFATYYCQQASSFPRTFGQGTKVEIK
notes: Human agonistic anti-CD40 antibody from hybridoma; plasmids ATCC PTA-3304 and PTA-3305; Signal peptides predicted by Signal P

Each binder was assayed against T1, ヒトCD40 (human CD40 expressed on cells) (human, UniProt P25942 21-277) (assay: screening by ELISA (human CD40 mouse FC) and FACS (Ramos cells)).
T1 construct: whole, on cells; also called Ramos細胞上のCD40; DC上のCD40
T1 sequence (P25942 21-277): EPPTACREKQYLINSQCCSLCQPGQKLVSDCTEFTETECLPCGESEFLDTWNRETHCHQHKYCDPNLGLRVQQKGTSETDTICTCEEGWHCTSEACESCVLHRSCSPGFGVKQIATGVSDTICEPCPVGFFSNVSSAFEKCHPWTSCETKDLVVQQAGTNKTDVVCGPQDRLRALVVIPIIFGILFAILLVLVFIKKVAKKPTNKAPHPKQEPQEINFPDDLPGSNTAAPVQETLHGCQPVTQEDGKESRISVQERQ
B1: binds. B2: binds. B3: binds. B4: binds. B5: binds. B6: binds. B7: binds. B8: binds.
